The record followed here is patent US20190316133, “Anti-Fibrinogen Aptamers and Uses Thereof” (Laboratoire Francais du Fractionnement et des …, published 2019).

In data set [1] the target is T1, fibrinogen (transgenic human, from milk of transgenic cows) (Homo sapiens, UniProt P02671-2;P02675;P02679 P02671-2:20-644,P02675:31-491,P02679:27-453). The data set is described as follows: SPR; high affinity stated. The following applies: tags: none; 97% purity; chain copies: 2; label: 5' biotin-triethylene glycol. The method, then:
(§1) The selected aptamer was synthetized with Biotin and a triethylene glycol spacer at the 5′ end of the oligonucleotide. A 1 μM solution of the aptamer was prepared using the SELEX selection buffer. The aptamer solution was heated to 90° C. for 5 min, incubated on ice for 5 min and equilibrated to room temperature for 10 min. The preparation was injected on a streptavidin coated sensor chip SA of Biacore T200 instrument (GE Healthcare) at a flow rate of 10 μl/min for 7 min. Then, different concentrations of the target were injected to the immobilised aptamer at 30 μl/min for 1 minute. After dissociation for 1-2 min a wash step was performed by injecting a suitable wash buffer at 30 μl/min for 1 min. For elution, a suitable elution buffer was injected at 30 μl/min for 1-2 min. Finally the sensor chip was regenerated by injection of 50 mM NaOH at 30 μl/min for 30 sec. During the course of the experiment the response signal was recorded in a sensorgram.

Data set [2] has as its target T1, fibrinogen (transgenic human, from milk …). Kind of data set: SPR; high affinity; pH-dependent. As to conditions: tags: none; 97% purity; chain copies: 2. The method, then:
as §1
The core sequences of aptamers SEQ ID NO:1 and SEQ ID NO:58 (namely the minimal sequence binding to fibrinogen) were determined. The aptamer of SEQ ID NO:66 corresponds to the core sequence of aptamer of SEQ ID NO:1. The aptamer of SEQ ID NO:67 is the core sequence of aptamer of SEQ ID NO:58. FIGS. 3A-3D show the binding profile obtained for the core sequences of aptamers of SEQ ID NO:1 and NO:58 by SPR. […]
A general note: SPR reads the build-up and loss of mass on a sensor chip optically.

Data set [3] shares this target. Kind of data set: SPR; dose-dependent 125-1000 nM at pH 6.3; not eluted by 1 M NaCl; released at pH 7.4 with 2 M MgCl2. As to conditions: tags: none; 97% purity; chain copies: 2; label: 5' biotin-triethylene glycol. On the procedure: Each solution of transgenic fibrinogen was injected at pH 6.3 whereby a complex was formed in a dose-dependent manner as evidenced by the increase of the signals depending on the concentration of fibrinogen. […] Fibrinogen was then released from the complex by an elution buffer at pH 7.40 and containing MgCl₂ at 2M. The solid support was then regenerated by injecting a solution of NaOH at 50 mM. X-axis: time in s. Y-axis: SPR response in arbitrary scale.
as §1, with “Finally the sensor chip was regenerated by injection of 50 mM NaOH at 30 μl/min for 30 sec.” left out

The target is the same in data set [4]. Kind of data set: SPR; dose-dependent 125-1000 nM at pH 6.3; not eluted by 0.5 M NaCl; released at pH 7.4. The following applies: tags: none; 97% purity; chain copies: 2; label: 5' biotin-triethylene glycol. The method, then: Each solution of transgenic fibrinogen was injected at pH 6.3 whereby a complex was formed in a dose-dependent manner as evidenced by the increase of the signals depending on the concentration of fibrinogen. […] Fibrinogen was then released from the complex by an elution buffer at pH 7.40. The solid support was then regenerated by injecting a solution of NaOH at 50 mM. X-axis: time in s. Y-axis: SPR response in arbitrary scale
as §1

T1 sequence (P02671 other isoform, or with tags, fused parts or gaps, chain 1 of 3): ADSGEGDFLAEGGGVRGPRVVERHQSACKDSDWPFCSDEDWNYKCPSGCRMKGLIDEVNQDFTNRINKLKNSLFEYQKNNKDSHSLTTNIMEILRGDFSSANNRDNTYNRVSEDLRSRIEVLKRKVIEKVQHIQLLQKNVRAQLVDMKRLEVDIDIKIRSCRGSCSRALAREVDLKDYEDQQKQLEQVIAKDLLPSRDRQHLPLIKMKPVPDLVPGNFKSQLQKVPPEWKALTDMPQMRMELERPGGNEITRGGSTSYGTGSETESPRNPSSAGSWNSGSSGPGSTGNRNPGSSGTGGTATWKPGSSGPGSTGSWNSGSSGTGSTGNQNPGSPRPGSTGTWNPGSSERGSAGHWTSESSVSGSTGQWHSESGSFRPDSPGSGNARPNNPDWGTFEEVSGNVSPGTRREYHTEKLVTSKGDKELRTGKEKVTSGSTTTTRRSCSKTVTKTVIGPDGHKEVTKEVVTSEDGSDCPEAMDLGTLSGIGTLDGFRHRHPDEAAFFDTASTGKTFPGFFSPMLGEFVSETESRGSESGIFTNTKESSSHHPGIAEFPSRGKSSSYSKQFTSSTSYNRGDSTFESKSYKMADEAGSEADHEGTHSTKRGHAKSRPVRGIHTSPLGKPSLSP
T1 sequence (P02675 31-491, chain 2 of 3): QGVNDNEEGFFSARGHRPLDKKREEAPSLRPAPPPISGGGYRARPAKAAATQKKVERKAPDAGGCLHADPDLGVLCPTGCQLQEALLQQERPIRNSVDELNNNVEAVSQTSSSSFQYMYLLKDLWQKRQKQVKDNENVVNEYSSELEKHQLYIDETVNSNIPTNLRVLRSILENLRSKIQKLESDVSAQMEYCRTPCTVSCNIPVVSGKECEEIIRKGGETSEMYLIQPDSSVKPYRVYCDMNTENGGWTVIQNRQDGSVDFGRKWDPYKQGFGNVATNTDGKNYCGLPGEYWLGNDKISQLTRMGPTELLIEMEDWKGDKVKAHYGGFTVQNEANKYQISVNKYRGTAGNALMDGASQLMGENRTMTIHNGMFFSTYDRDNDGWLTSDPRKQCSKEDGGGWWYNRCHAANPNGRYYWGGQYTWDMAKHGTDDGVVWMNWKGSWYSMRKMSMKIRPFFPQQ
T1 sequence (P02679 27-453, chain 3 of 3): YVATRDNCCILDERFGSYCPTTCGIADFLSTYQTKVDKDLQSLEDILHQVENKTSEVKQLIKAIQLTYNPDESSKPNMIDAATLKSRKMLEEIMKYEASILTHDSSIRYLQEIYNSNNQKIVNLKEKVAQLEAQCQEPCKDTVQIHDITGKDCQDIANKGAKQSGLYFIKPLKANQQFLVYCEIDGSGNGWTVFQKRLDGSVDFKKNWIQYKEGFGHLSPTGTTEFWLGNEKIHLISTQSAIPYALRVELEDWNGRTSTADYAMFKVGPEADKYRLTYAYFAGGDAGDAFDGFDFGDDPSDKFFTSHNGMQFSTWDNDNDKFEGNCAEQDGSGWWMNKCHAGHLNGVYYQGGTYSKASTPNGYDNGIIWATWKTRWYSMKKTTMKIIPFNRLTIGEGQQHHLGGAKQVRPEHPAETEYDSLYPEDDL

B1: SEQ ID NO:65 aptamer (ssDNA)
DNA: GGGTCAATGCCAGGTCTCGAGCCGGTGTTGTGTTATGTTGGTAGGGAAGGTGTATAATATCGGCTCGCAAGCAGTC
For the molecule B1, the binding result in data set [1] is on record as “binds”.

B2: SEQ ID NO:1 aptamer (ssDNA)
DNA: GGGTCAATGCCAGGTCTCGGACCTGGAATCCGCCACCCGCATTAGAACCAGGGTTGACATCGGCTCGCAAGCAGTC
For the molecule B2, the binding result in data set [2] is listed as “binds”.

For the molecule CGCGTGTGGTTGGTAGGGCTAGGTGTATACGCAT (ssDNA) [A5-2.9 (core of SEQ ID NO:58)], the binding result in data set [3] was “binds”.

B3: SEQ ID NO:58 aptamer (ssDNA)
DNA: GGGTCAATGCCAGGTCTCAACTTTCGCGTGTGGTTGGTAGGGCTAGGTGTATACGCATATCGGCTCGCAAGCAGTC
In the case of B3, the binding result in data set [2] is reported as “binds”.

B4: A5-1.9 (core of SEQ ID NO:1) (ssDNA)
DNA: GGGTCAATGCCAGGTCTCGGACCTGGAATCCGCCACCCGCATTAGAACCAGGGTTGAC
On to B4, for which the binding result in data set [4] was “binds”.

B5: SEQ ID NO:60 aptamer (ssDNA)
DNA: GGGTCAATGCCAGGTCTCTGCGTACTTATCTCGATGTGGTTGGTAGGGATAGGTGTATATCGGCTCGCAAGCAGTC
With B5, the binding result in data set [1] is reported as “binds”.
